{
  "source": "the nanobody polyreactivity screen of Harvey et al. (2022)",
  "data": [
    {"assay": "yeast display, Sf9 membrane polyspecificity reagent, FACS + sequencing; frameworks hold sequencing errors", "procedure,_shortened": "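Nanobodies came from a synthetic yeast display library in Saccharomyces cerevisiae BJ5465, induced with galactose for 36–48 hours and stained for 1 hour at 4 °C with 10% biotinylated, detergent-solubilized Sf9 membrane reagent. Cells were enriched on streptavidin microbeads and then FACS-sorted, with low and high (top ~1%) gates set on anti-HA fluorescence for expression and streptavidin fluorescence for reagent binding. Each polyreactivity label reflects the gate a clone came from. Genes were amplified by colony PCR, sequenced by MiSeq 2 × 250 and filtered by CDR length.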", "values": [
      {"sequence": "QVQLVESGGGLVQAGGSLRLSCAASGLIFRYYAMGWYRQAPGKERELVASISGSGGSTYYADSVKGRFTISRDNAKNTVYLQMNSLKPEDTAVYYCAATLAVYRRGPRYNYWGQGTQVTVSS", "polyreactivity (PSR sort gate)": "high polyreactivity"},
      {"sequence": "QVQLVESGGGLVQAGGSLRLSCAASGLIFRYYVMGWYRQAPGKERDFVASISYSGGRTYYADSVKGRFTISRDYAKNTVYLQMNRLKPEDTAVYYCAGGYYYHRYSYPGDYWGQGTQVTVSS", "polyreactivity (PSR sort gate)": "high polyreactivity"},
      {"sequence": "QVQLVESGGGLVQAGGSLRLSCAASGLIFSCNAMGWYRQAPGKERELVASISYSGGRTYYADSVKGRFTISRDNAKNTVYLQMNSLKPEDTAVYYCAADTNATTDPEMDYWGQGTQVTVSS", "polyreactivity (PSR sort gate)": "low polyreactivity"},
      {"sequence": "QVQLVESGGGLVQAGGSLRLSCAASGLIFSGYAMGWYRQAPGKDRELVAALTRRGSRTYYADSVKGRFTISRDNAKNTVYLQMNSLKPEDTAVYYCAADRFQGRDDYWGQGTQVTVSS", "polyreactivity (PSR sort gate)": "high polyreactivity"},
      {"sequence": "QVQLVESGGGLVQAGGSLRLSCAASGLIFSQNAMGWYRQAPGKERELVARITLSGTSTYYADSVKGRFTISRDNAKNTVYLQMISLKPEDTAVYYCNTRSYSYYVPYRYDYWGQGTQVTVSS", "polyreactivity (PSR sort gate)": "high polyreactivity"},
      {"sequence": "QVQLVESGGGLVQAGGSLRLSCAASGLIFSSYAMGWYRQAPGQERELVAAITGSGGRTYYADSVKGRFTISRDNAKNTVYLQMNSLKPEDTAVYYWNRRSRRQGGYWGQGTHVTVSS", "polyreactivity (PSR sort gate)": "high polyreactivity"},
      {"sequence": "QVQLVESGGGLVQAGGSLRLSCAASGLIFSWYAMGWYRQAPGKERELVAAITGSGGRTYYADSVKGRFTISRDNAKNTVYLQMNSLKPEDTAVYYCAALYTARYDYWGQGTQVTVSS", "polyreactivity (PSR sort gate)": "high polyreactivity"},
      {"sequence": "QVQLVESGGGLVQAGGSLRLSCAASGLIFSYYAMGWYIQAPGKERVLVAAISGVGSTNYADSVKGRFTISRDNEKNTVYLQMNSLKPEDTAVYYCAARFVLRRDYGYWGQGTQVTVSS", "polyreactivity (PSR sort gate)": "high polyreactivity"},
      {"sequence": "QVQLVESGGGLVQAGGSLRLSCAASGLIFSYYAMGWYRQAPGKERELVAAISRGGSTNYADSVKGRFTISRDNAKNTVNLQMNSLKPEDTAVYYFAAGRFAYHDDYWGQGTQVTVSS", "polyreactivity (PSR sort gate)": "high polyreactivity"},
      {"sequence": "QVQLVESGGGLVQAGGSLRLSCAASGLIFSYYAMGWYRQAPGKERELVAGITRSGASTYADSVKGRFTISRDNAKNTVYLQMNSLKPEDTAVYYCAADWHYLGWFWQYSKYDYWGQGTQVTVSS", "polyreactivity (PSR sort gate)": "high polyreactivity"},
      {"sequence": "QVQLVESGGGLVQAGGSLRLSCAASGLIFTAYAMGWYRPAPGKERELVAAITGSGGRTYYADSVKGRFTISRDNALNSVYLQMNSLKAEDTAVYYCAADFPARGSSTYDYWGQGTQVTVSS", "polyreactivity (PSR sort gate)": "high polyreactivity"},
      {"sequence": "QVQLVESGGGLVQAGGSLRLSCAASGLIFTNYAMGWYRQAPGKERELVAGISTRGTSTYYADSVKGRFTISRDNAKNTVYLQMNSLKPEDTAVYYCAAVHRVVRAYDYWGQGTQVTVSS", "polyreactivity (PSR sort gate)": "high polyreactivity"},
      {"sequence": "QVQLVESGGGLVQAGGSLRLSCAASGLIFTSYAMGWYRQAPGKERELVAAISRGVRTYYADSVKGRFTISRDNAKNTVYLQMNSLKPEDTAVYYCAAAKPPPGKYDYWGQGTQVTVSS", "polyreactivity (PSR sort gate)": "high polyreactivity"},
      {"sequence": "QVQLVESGGGLVQAGGSLRLSCAASGLIFTVNAMGWYRQAPGKERELVAAISQSGGSTYYADSVKGRFTISRDNAKNTVYLQMNSLKPEDTAVYYCARGSWRHFRLYGFDYWGQGTQLTVSS", "polyreactivity (PSR sort gate)": "low polyreactivity"},
      {"sequence": "QVQLVESGGGLVQAGGSLRLSCAASGLIFTWNAMGWYRQAPGKERELVAAISTGGSTSYADSVKGRFTISRDNAKNTVYLQMNSLKPEDTAVYYCARDSSIWSHGSWYDYWGQGTQVTVSS", "polyreactivity (PSR sort gate)": "low polyreactivity"},
      {"sequence": "QVQLVESGGGLVQAGGSLRLSCAASGLIFTYYAMGWYRQAPGKERELVAGISSGTNTNYADSVKGRFTISRDNAKNTVYLQMNSLKPEDTALYYCATTRGYQFVAYGYWGQGTQVTVSS", "polyreactivity (PSR sort gate)": "low polyreactivity"},
      {"sequence": "QVQLVESGGGLVQAGGSLRLSCAASGLIFTYYAMGWYRQAPGKERELVAGISSGTNTNYADSVKGRFTISRDNAKNTVYLQMNSLKPEDTAVYYCAKTRGYQFVAYGYWGQGTQVTVSS", "polyreactivity (PSR sort gate)": "low polyreactivity"},
      {"sequence": "QVQLVESGGGLVQAGGSLRLSCAASGLIFTYYTMGWYRQEPGTERELVATINWNTSSTYYADSVKGRFTISRDNAKNTVYLQMNSLKPEDTAVYYCNKRIAESDTTVTYDYWGQGTQVTVSS", "polyreactivity (PSR sort gate)": "low polyreactivity"},
      {"sequence": "QVQLVESGGGLVQAGGSLRLSCAASGLIFVANAMGWYRQAPGKERELVAAISRSGGITTYADSVKGRFTISRDNAKNTVYLQMNSLKPEDTAVYYCAADTDPNPLIDYTLPMDYWGQGTQVTVSS", "polyreactivity (PSR sort gate)": "low polyreactivity"},
      {"sequence": "QVQLVESGGGLVQAGGSLRLSCAASGLIFVNNPMGWYRQAPGKERELVAAISWSTGGSTYYADSVKGRFTISRDNAKNSVYLQMNSLKPEDTAVYYCAAQYSYGEYWGYDYWGQGTQVTVSS", "polyreactivity (PSR sort gate)": "low polyreactivity"},
      {"sequence": "QVQLVESGGGLVQAGGSLRLSCAASGLIFVPYAMGWYRQAPGKERELVAAINSGATTYYADSVKGRFTISRDNAKNTVYLQMNSLKPEDTAVYYCNAEYPVYVYWFDYWGQGTQVTVSS", "polyreactivity (PSR sort gate)": "high polyreactivity"},
      {"sequence": "QVQLVESGGGLVQAGGSLRLSCAASGLIFVQNAMGWYRQAPGKEREFVAAISAGGTRTYYADSVKGRFTISRDNAKNTVYLQMNSVKPEDTAVYYCAAASGYDYWGQGTQGTVSS", "polyreactivity (PSR sort gate)": "high polyreactivity"},
      {"sequence": "QVQLVESGGGLVQAGGSLRLSCAASGLIFVQNAMGWYRQAPGKERELVAAISSRGTNTYYADSVKGRFTISRDNAKNTVYLQMNSLKPEDTAVYYCAKPLKTPRPNYDYWGQGTQVTVSS", "polyreactivity (PSR sort gate)": "low polyreactivity"},
      {"sequence": "QVQLVESGGGLVQAGGSLRLSCAASGLIFVSYAMGWYRQAPGKERELVAAISSGGSTYYADSVKGRFTISRDNAKNTVSLQMTSLKPEDTAVYYCNADGFYSWLYDYWGQGTQVTVSS", "polyreactivity (PSR sort gate)": "low polyreactivity"},
      {"sequence": "QVQLVESGGGLVQAGGSLRLSCAASGLIFWEYAMGWYRPAPGNERELVASITWGGGGTYYADSVKGRFTISRYNAKNTVNLHKNSLKPEDTAVYYSAVGPYYQSTQIYDYWGQGTQVTVSS", "polyreactivity (PSR sort gate)": "low polyreactivity"},
      {"sequence": "QVQLVESGGGLVQAGGSLRLSCAASGLIFWFYAMGWYRQAPGKERELVAAISGDGDSTYYADSVKGRFTISRDHAKNTVYLQMNSLKPEDTAVYYCAAEWDPVFATDEDDYWGQGTQVTVSS", "polyreactivity (PSR sort gate)": "low polyreactivity"},
      {"sequence": "QVQLVESGGGLVQAGGSLRLSCAASGLIFWYNAMGWDRQATGKEREFVAAITSDGGRTYYADSVKGRFTISRDNAKNTVYLQMNSLKTEDTAVYYCTARGYGYLGRKGGYSYGYYYWGQGTQVTVSS", "polyreactivity (PSR sort gate)": "low polyreactivity"},
      {"sequence": "QVQLVESGGGLVQAGGSLRLSCAASGLIFWYYAMGWYRQAPGTERELVASISSGGDTTYADSVKGRFTISRDNAKKTVYLQMNSLKPEDTAVYDCAAERYVRVWVAGILHYDYWGQGTQVTGSS", "polyreactivity (PSR sort gate)": "low polyreactivity"},
      {"sequence": "QVQLVESGGGLVQAGGSLRLSCAASGLIFYAYAMGWYRQAPGKERELVAAISYSGGSTYYADSVKGRFTISRDNAKNTVYLQMNSLKPEDTAVYYCAASYISVYWRWYEYWGQGTQVTVSS", "polyreactivity (PSR sort gate)": "high polyreactivity"},
      {"sequence": "QVQLVESGGGLVQAGGSLRLSCAASGLIFYDNMGGYRQAPGKERELVAAISSSGGSTSYADSVKGRFTISRDNAKNTVSLQMNSLNPEDSAVYYCTVSPGVWRSIPLYYNLLYGYWGQGTQVTVSS", "polyreactivity (PSR sort gate)": "low polyreactivity"},
      {"sequence": "QVQLVESGGGLVQAGGSLRLSCAASGLIFYDNMGWYGPAPGKERELVAAISSSGGSTSYADSVKGRFTISRDNAKNTVYLQMNSLKPEDTAVYYCAADSYPAYLGFVCFDYWGQGTQVTVSS", "polyreactivity (PSR sort gate)": "low polyreactivity"},
      {"sequence": "QVQLVESGGGLVQAGGSLRLSCAASGLIFYDNMGWYRQAPGKERELVAAISSSGGSTSYADSVKGRFTISRDNAKNTVYLQMNSLKPEDTAVYYCAADVELWVFRGQQYDYWGQGTQVTVSS", "polyreactivity (PSR sort gate)": "low polyreactivity"},
      {"sequence": "QVQLVESGGGLVQAGGSLRLSCAASGLIFYDNMVWYRQGPGTETELVAAISSSGGSTSYADSVKGRFTISRDNAKNTVYLQMNILKPEDTAVYYCAADSYPAYLGFVCFDYWGQGTEVTVSS", "polyreactivity (PSR sort gate)": "low polyreactivity"},
      {"sequence": "QVQLVESGGGLVQAGGSLRLSCAASGLIFYDYAMGWYRPAPGKERELVAAITSSDSTYYADSVKGRFTISRDNAQNTVYLQMNSLKPEDTAVYYCAAKPYYFYGMDYWGQGTQVTVSS", "polyreactivity (PSR sort gate)": "high polyreactivity"},
      {"sequence": "QVQLVESGGGLVQAGGSLRLSCAASGLIFYENAMGWYRQAPGKERELVAAINYDGDSTYYADSVKGRFTISRDNAKNTFYLQLNSLKPEDTAVYYCAADGGWVLFWMDYWGQGTQVTVSS", "polyreactivity (PSR sort gate)": "low polyreactivity"},
      {"sequence": "QVQLVESGGGLVQAGGSLRLSCAASGLIFYGNAMGWSRQAPGKERELVAAISRRGGRTYYADSVKGRFTISRDNAKNTVYLQMNSLKPEDTAVYYCDADVIYSGDYWGQGTQVTVSS", "polyreactivity (PSR sort gate)": "high polyreactivity"},
      {"sequence": "QVQLVESGGGLVQAGGSLRLSCAASGLIFYGNAMGWYRQAPVKERELVAAISRRGGRTYYADSVKGRFTISRDNAKNTVYLQMNSLKPEDTAVYYCAAGVPKNGQAGYDYWGQGTQVTVSS", "polyreactivity (PSR sort gate)": "high polyreactivity"},
      {"sequence": "QVQLVESGGGLVQAGGSLRLSCAASGLIFYGNAMGWYRQAPWKERELVAAITGGGGNTYYADSVKGRFTISRDNAKITFFLQMISLKPEDTAVYYCASASSTAYVRYYYWGQGTQVTVSS", "polyreactivity (PSR sort gate)": "high polyreactivity"},
      {"sequence": "QVQLVESGGGLVQAGGSLRLSCAASGLIFYINAMGWYRQAPGKERELVAAISSGGSTNYADSVKGRFTISRDNAKNTVYLQMNSLKPEDTAVYYCARDAYLPRIADGDGRYELVDYWGQGTQVTVSS", "polyreactivity (PSR sort gate)": "low polyreactivity"},
      {"sequence": "QVQLVESGGGLVQAGGSLRLSCAASGLIFYIYMGWYRQAPGKERELVAVISSSGNSTYYADSVKGRFTISRDNEKNTVYLQMNSLKPEDTAVYYCNASAYYPPSSSRYDYWGQGTQVTVSS", "polyreactivity (PSR sort gate)": "low polyreactivity"},
      {"sequence": "QVQLVESGGGLVQAGGSLRLSCAASGLIFYKYAMGWYRQAPGKERELVASISTGGGSTYYADSVKGRFTISRDNAKNTVYLQMNSLKPEDTAVYYCAARWWRRFRGSHSLYDYWGQGTQVTVSS", "polyreactivity (PSR sort gate)": "high polyreactivity"}
    ]}
  ]
}
